The target of assay [1] is low-density lipoprotein receptor-related protein (LRP), purified (human) (UniProt Q07954). In words: homologous ligand displacement: 125I-fVIII (1 nM) on LRP-coated microtiter wells, competitor unlabeled fVIII.
Assay [2] has the same target. In words: homologous displacement of ^125I-fVIII (1 nM) by unlabeled fVIII on LRP-coated wells, LIGAND fit.
Assay [3] shares this target. In words: homologous displacement on LRP-coated wells.
Assay [4] deals with A1/A3-C1-C2 heterodimer of factor VIII, plasma-derived (human) (UniProt P00451). Briefly: cell-based or functional assay.
Sequence of A1/A3-C1-C2 heterodimer of factor VIII, plasma-derived (human) (P00451 20-391, chain 1 of 2): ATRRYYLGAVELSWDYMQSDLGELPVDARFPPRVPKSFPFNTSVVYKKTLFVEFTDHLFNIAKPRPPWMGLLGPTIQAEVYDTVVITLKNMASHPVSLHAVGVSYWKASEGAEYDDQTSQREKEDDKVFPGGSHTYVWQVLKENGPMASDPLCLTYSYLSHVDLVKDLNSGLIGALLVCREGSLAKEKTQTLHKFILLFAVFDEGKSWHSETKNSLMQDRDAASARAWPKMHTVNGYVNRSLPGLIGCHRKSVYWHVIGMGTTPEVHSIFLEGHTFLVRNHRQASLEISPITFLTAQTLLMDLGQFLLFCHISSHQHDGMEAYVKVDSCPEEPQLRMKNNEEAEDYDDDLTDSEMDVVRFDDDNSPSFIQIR
Sequence of A1/A3-C1-C2 heterodimer of factor VIII, plasma-derived (human) (P00451 1709-2351, chain 2 of 2): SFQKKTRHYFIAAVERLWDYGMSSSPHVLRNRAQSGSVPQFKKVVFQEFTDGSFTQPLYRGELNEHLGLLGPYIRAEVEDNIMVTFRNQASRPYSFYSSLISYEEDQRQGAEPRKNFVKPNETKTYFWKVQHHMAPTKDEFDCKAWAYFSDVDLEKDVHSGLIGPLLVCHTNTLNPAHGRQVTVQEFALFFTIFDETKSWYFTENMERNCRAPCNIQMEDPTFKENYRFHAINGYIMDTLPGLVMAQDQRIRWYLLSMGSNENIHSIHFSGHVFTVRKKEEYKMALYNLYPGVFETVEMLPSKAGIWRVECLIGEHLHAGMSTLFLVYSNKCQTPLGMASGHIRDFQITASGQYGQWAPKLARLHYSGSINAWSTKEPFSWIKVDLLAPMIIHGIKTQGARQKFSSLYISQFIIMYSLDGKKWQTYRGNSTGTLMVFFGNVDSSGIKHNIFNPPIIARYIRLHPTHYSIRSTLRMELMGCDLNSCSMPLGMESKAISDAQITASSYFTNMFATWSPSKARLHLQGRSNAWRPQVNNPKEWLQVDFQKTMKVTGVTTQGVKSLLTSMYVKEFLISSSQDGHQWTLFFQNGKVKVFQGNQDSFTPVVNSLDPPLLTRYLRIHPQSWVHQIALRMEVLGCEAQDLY
Assay [5] deals with low-density lipoprotein receptor-related protein (LRP), purified (human) (UniProt Q07954). Briefly: SPR, BIAcore 3000, one-site model, KD = koff/kon. (Surface plasmon resonance follows binding to a sensor surface in real time, without labels.)
The target is the same in assay [6]. In words: SPR, BIAcore 3000.

This is an account of results in patent US20070232789A1.

“factor VIII purified from therapeutic concentrates (Method M, American Red Cross), P00451 20-1667; P00451 1668-2351” came in with an IC50 (read off the curve) in assay [1] of 100 nM. Further, in assay [2], the Kd (usually a measure of binding affinity in units of concentration) turned out to be 116 nM. The substance also displayed a percent of binding competed by an excess of unlabeled fVIII in assay [3] greater than 90%.

“recombinant A2 mutant #2 (Lys-377 to Ala) (from UniProt P00451 392-759)” had an Activity of reconstituted FVIIIa (% of wt activity) (% of wt activity) in assay [4] of 365. Besides, the dissociation constant (Kd) in assay [5] was determined as 18 nM.

Substance “recombinant A2 mutant #3 (His-378 to Ala) (from UniProt P00451 392-759)” gave an Activity of reconstituted FVIIIa (% of wt activity) (% of wt activity) in assay [4] of 417. The substance further displayed a dissociation constant Kd in assay [5] of 19 nM.

For the substance “recombinant A2 mutant #4 (Lys-380 to Ala) (from UniProt P00451 392-759)”, the Activity of reconstituted FVIIIa (% of wt activity) (% of wt activity) in assay [4] was 291. In assay [5], this substance registered a Kd of 47 nM.

On to “recombinant A2 mutant #5 (Lys-466 to Ala) (from UniProt P00451 392-759)”, for which the Activity of reconstituted FVIIIa (% of wt activity) (% of wt activity) in assay [4] was 130. Further, in assay [6], the fold decrease of affinity against wt-A2 was 28 fold. This substance also displayed a dissociation constant Kd in assay [5] of 600 nM.

“recombinant A2 mutant #6 (Arg-471 to Ala) (from UniProt P00451 392-759)” gave an Activity of reconstituted FVIIIa (% of wt activity) (% of wt activity) in assay [4] of 34.6. Further, the fold decrease of affinity against wt-A2 in assay [6] was 19 fold. Besides, in assay [5], the Kd turned out to be 400 nM.

On to “recombinant A2 mutant #7 (Arg-484 to Ala) (from UniProt P00451 392-759)”, for which the Activity of reconstituted FVIIIa (% of wt activity) (% of wt activity) in assay [4] turned out to be 64.9. This substance showed a fold decrease of affinity against wt-A2 in assay [6] of 15 fold. The equilibrium dissociation constant (Kd) in assay [5] amounted to 320 nM.
